Measurements reported in the nanobody polyreactivity screen of Harvey et al. (2022).

Assay: yeast display, Sf9 membrane polyspecificity reagent, FACS + sequencing; frameworks hold sequencing errors
Method in brief: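 Synthetic nanobody libraries on Saccharomyces cerevisiae BJ5465 were galactose-induced for 36–48 hours, stained 1 hour at 4 °C with 10% biotinylated, detergent-solubilized Sf9 membrane reagent and enriched on streptavidin microbeads. FACS then separated cells into low and high (top ~1%) gates by anti-HA (expression) and streptavidin (reagent binding) fluorescence. Genes were colony-PCR amplified, MiSeq 2 × 250 sequenced and CDR-length filtered. A clone's polyreactivity label is that of its gate of origin.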

Sequence | polyreactivity (PSR sort gate)
QVQLVESGGGLVQAGGSLRLSCAASGLIFTWNAMGWYRQATGKERELVAAISTGGSTSYADSVKGRFTISRDNAKNTVYLQMNSLKPEDTAVYYCARDSSIWSHGSWYDYWGQGTQVTVSS | low polyreactivity
QVQLVESGGGLVQAGGSLRLSCAASGRTFYRYAMGWYRQAPGKERELVAVITSGSRTKYADSVKGRFTISRDNAKNTVYLQMNSLKPEDTAVYYCNAYGVRYRQAFVRYNYWGQGTQVTVSS | high polyreactivity
QVQLVESGGGLVQAGGSLRLSCAASGRISSLYAMGWYRQAPGKERELVAAISGTGGSAYYADSVKGRFTISRDNAKNTVYLQLNSLKPEDTAVYYCNAVRRWRTSQFDYWGQGTQVTVSS | low polyreactivity
QVQLVESGGGLVQAGGSLRLSCAASGSIYDYNTMGWYRQAPGKERELVAAISASGGRTYYADSEKGRFTISRDNAKNTVYLQMNSLKPEDTAVYYCARYYIGYYERFGYDYWGQGTQVTVSS | high polyreactivity
QVQLVESGGGLVQAGGSLRLSCAASGLNFGVNAMGLYRQAPGKERELVAAISRSGGSTYYADSVKGRFTISRDNAKNSVYLQMNSLKPEDTAVYYCAAAAWDPKGSRYDYWGHGTQVTVSS | low polyreactivity
QVQLVESGGGLVQAGGRHRLSCAASGSTLTRNTMGWYRQAPGIQRELVATITRSGGSTYYADSVKGRFTISRDNAKNTVYLQMNSLKPEDTAVYYCAVRRQTFRYVYPGMDYWGQGTQETVSS | high polyreactivity
QVQLVESGGGIVQAGGSLRLSCAASGIIFRAYAMGWSRQAPGKDRELVAAISWSGGSTYYADSVKGRFTISRDNAKNTVYLQMNSLKPEDTAVYYCAARRWKGYYYWGQGTQVNVSS | high polyreactivity
QVQLVESGGGLVQAGGSLRLSCAASGRIFGSYAMGWYRQAPGKERELVAAISWSGGRTYYADSVKGRFTISRDNAKNTVYLQMNSLKPEDTAVYYCNALVFGRYRDMDYWGQGTQVTVSS | high polyreactivity
QVQLVESGGCLVQAGCSLRLSCAASGGTFDVNAMGWYRQAPGKERELVAAITWSGGNTYYADSVKGRFTISRDNAKNTVYLQMNSLKPEDTAVYYCATDFSPVYYTRYDYWGQGTQVTVSS | low polyreactivity
QVQLVESGGGLVQAGGSLRLSCAASGRTFEGNAMGWYRQAPGKESELVAAITSGGRTNYADSVKGRFTISRDNAKNTVYLQMNCLKPEDPAVYYCAVETRDRSNYFPGQAYDYWGQGTQVTVSS | low polyreactivity
QVQLVESGGGIVQAGGSLRLSCAASGSTLVKYAMGWYRQAPGKERELVAAISWSGGRTYYADSVKGRFTISRDNAKNTVYLQMNSLKPEDTAVYYCAARRKAVRYDYWGQGTQVTVSS | high polyreactivity
QVQLGDSGGGLVHAGGSLSLSCAASGSTFAYYSMGWYRQAPGKERELVAGFTWTGGSTYYADSVKGRFTISRDNAKNTVYFQKNSLKPEDTAVYFCAVTYPYGYEYDHWGQGSQVTVSS | low polyreactivity
QVQLVESGGGLVQAGGSLRLSCAASGRIFQRYTMGWYRQAPGKEREFVAAITYSGGSTHYADSVKGRFTISRDNAKNTVYLQMNSLKPEDTAVYYCIADRYYGRGYGYWGQGTQVTVSS | low polyreactivity
QVQLVESGGGLVQAGGSLRLSCAASGFIFKHNALGWYRQAPGKERELVAAISWSGDSTYYADSVKGRFTISRDNAKNTVYLQMNSLKPEDTAVYYCAAVRALRKVRDYYYWGQGTQVTVSS | high polyreactivity
QVQLVESGGGLVQAGGSLRLSCAASGRIFGAYAMGWYRQAPGKERELVAAITQSGGSTFYADSVKGRFTISRDNAKNTVYLQMNSLKPEDTAVYYWGQGTQVTVSS | low polyreactivity
QVQIVESGGGLVQAGGSLRLSCAASGRTFQYYTMGWSRQAPGKEREFVAAIRDSGGSTYYADSVKGRFTISRDNAKNTVYLQMNSLKPEDTAVYYCAAYRPRKYDYWGQGTQVTVSS | high polyreactivity
QVQLVESAGGLVQAGGSLRLSCAASVSTLEYNAMGWYRQAPGNERELVAAITASGGSTYYADSVKGRFTISRDNAKKTVYLQMNSLKPDDTAVYYCATEANQRTLKDTVKDYDYWGQGTQVTVSS | low polyreactivity
QVQLVESGGGLVQAGGSLRLSCAASGRTLSGYAMGWYRQAPGKERELVAVITSGGSTYYADSVKGRFTISRDNAKNTVYLQMNSVKPEDTAVYYCSARRGRRLQDSQYWGQGTQVTVSS | high polyreactivity
QVQLVESGGGLVQAGGSLRLSCAASGSTFRRNAMGWYRQAPGKERELVAAISAGGGSTYYADSVKGRFTISRDNAKNTVYLQMNSLKPEDTAVYYCNVAGSGVRRMGYWGQGTQVTVSS | high polyreactivity
QVQLVESGGGLVQAGGSLRLSCAASGRIVGYYAMGWYRQAPGKERELVATITFGGGSTYYADTVKGRFTISRDIAKNTVYLQMNSLKPEDTAVYYCAAEIYPLGSLRLGPGEYDHWGQGTQVTVSS | low polyreactivity
QVQLVESGGGLVQAGGSLRLSCAASGITLLYYAMGWYRQAPGKERELVAAISRRGGSTYYADSVKGRFTISRDNAKNTVYLQMNSLKPEDTAVYYCAAYSPYGGYHYLYDYWGQGTQVTVSS | high polyreactivity
QVQLVESGGGLVQAGGSLRLSCAASGFTIHGNAMGWYRPAPGKERELVAGISSSGASTYYADSVKGRFTISRDNAKNTVFLQMNSLKPEDTAVYYCAVRYYGRYLRYNYWGQGTQVTVSS | high polyreactivity

Sequence | polyreactivity (PSR sort gate)
QVQLVESGGGLVQAGGSLRLICAASGRIFGYYAMGWYRQAPGKERELVATITFGGGSSYYADSVKGRFTISRDNAKNTVNLQMNSLKPEDTAVYYCAAVSGYLGIYGDEYSWGQGTQVTVSS | low polyreactivity
QVQLVESGGGLVQAGGSLRLSCAASGYIFKYNAMGWYRQAPGKERELVAAISSGGSTYYADSVKGRFTISRDNAKNTVYLQMNSLKPEDTAVYYCAARGVRSARIYYYWGQGTQVTVSS | high polyreactivity
QVQLVESGGGLVQAGGSLRLSCAASGRIFDLYTMGWYRQAPGKERELVAAIRWSDGSTYYADSVKGRFTISRDNAKNTVYLQMNSLKPEDTAVYYCARDADPNIGGYYYWGQGTQVTVSS | low polyreactivity
QVQLVESGGGLVQAGGSLRLSCAASGSTFQINAMGWYRQAPGKERELVARNSGSGSRTYYADSVKGRFTISRYNAKNTVSLQMNSLKPEDTAVYYCAARGTGKGYDSWGQGTQVTVSS | high polyreactivity
QVQLVESGGGLVQAGGSLRLSCAASGSTFNAYAMGWYRQAPGKERELVAAISYTGGSTYYADSVKGRFTISRDNAKNTVYLQMNSLKPEDTAVYYCARRQARKFYYWGQGTQVTVSS | high polyreactivity
QVQLVESGGGLVQAGGSLRLICAASGGIFTRNDMGWYRQAPGKERELVAGISWRGGSTYYADSVKGRFTISRDNAKNTVYLQMNSLKPEDTAVYYCAALDTGGERDYWGQGTQVNVSS | low polyreactivity
QVQLVESGGGLVQAGGSLRLSCAASGSTFNKYAMGWYRPPPGKERELVAAISWTGGHTYYADSVKGRFTFSRDNAKNTVYLQMNSLKPEDTAVYYCNTVNSRPKYNYWGQGTQVTVSS | high polyreactivity
QVQLVESGGGLVQAGGSLRLSFAASGRTFTWNVMGWYRQAPGKERELVAAITTDDRTYADSVKGRFTISRDNAKNTVYLQMNSLKPEDTAVYYCATVVAWSSRPVGEDYWGQGTQVTVSS | low polyreactivity
QVQLVESAGGLVQAGGSLRLSCAASGIIFSYYVMGWYRQAPGKERELVAAITTSGSRTYYADSVKGRFTISRDNAKITVYLQMNSLKPEVTSVYYCAAADAGLSVSSYRTYYYWGQGTQVTVSS | high polyreactivity
QVQLQESGGGLVQAGGSLRQSYAASGYIFPSLAMGWYRQAPGKEREFVAAIGRGSTNNYADSVKGRFTISRDNAKNTAYLQMNSLKPEDTAVYYCAAAASPLNRHLYWGQGTQVTVSS | low polyreactivity
QVQLVESGGGLVQAGGSLRLSCAASGSTFGQYAMGWYRQAPGKERELVAAISTSGGSTYYADSVKGRFTISRDNAKNTVYLQMNSLKPEDTAVYYCAVDRLPSYPTGFDYWGQGTQVTVSS | high polyreactivity
QVQLVESGGGLVQAGGSLRLSCAASGFNFWRYAMGWYRQAPGKERELVAVITWSGTRTYYADSVKGRFTISRDNAKNTVYLQMNSLKPEDTAVYYCAALYYGFRLTYGYDYWGQGTQVTVSS | high polyreactivity
QVQLVESGGGLVQAGGSLRLICAASGTISSLNTMGWYRQAPVKERELVASITWSGGSTYADSVKGRFTISRDNAKNTVYLQMNSLKPEDTAVYYCAKGVWFSRRRYGYWGQGTQVTVSS | high polyreactivity
QVQLVESGGGIVQAGGSLRLSCAASGSTFDSYAMGWYRQAPGKERELVATISWTGSSTYYADSVKGRFTISRDNAKNTVYLQMNSLKPADTAVYYCATDQYYEYDYWGQGTQVTVSS | low polyreactivity
QVQLVESGGGLVQAGGSLRLSCAASGSIFWSYAMGWYRQAPGKEREFVASITGSGGTTTYADSVKGRFTISRDNAKNTVYLQMNSLKPEDTAVYYCNARLHGWYHVYYIYDYWGQGTQVTVSS | low polyreactivity
QVQLVESGGGLVQAGGSLRLSCAASGSNFGEYAMGWYIQAPGKERELVAAISYRGGSTYYADSVKGRFTISRDNAKNTVYLQMNSLKPEDTAVYYCNRDRRRRGAYGRPGGDHWGQGTQVTVSS | high polyreactivity
QVQLVESGGGLVQAGGSLRLSCAASGLTFGRYAMGWYRPAPGKERELVAAISSGGSTYYADSVKGRFTISRDNAKNTVYLQMNSLKPEDTAVYYCAADYVGWYFVSGRDYWGQGTQVTVSS | low polyreactivity
QVHLVESGGGLVQAGGSLRLCCAASGRIFDHNTKGWYRQAPGKEMEFVAAITVSAGTTYYADSVKGRFTISSDNAKNTVYLQMNSLKPEDTAVYYCAAYYVYSYWDWGDYWGQGTQVTVSS | low polyreactivity
QVQLVESRGGLVQAGGSLRLSCAASGFTFVGYAMGWYRQAPGKERALVAAISRRGTPTYYADSVKGRFTISRDNAKNTVYLQMNSLKPEDTAVYFCAASNGYQAVTYDYWGQGTQVTVSS | high polyreactivity
QVQLVESGGGLVQAGGSLRLSCAASGSIFGGYGMGWYRQAPGKERELVAVITKRGGSTYYADSVKGRFTISRDNAKNTVYLQMNSLKPEDTAVYYCNKVGYYASVLGYDYWGQGTQVTVSS | high polyreactivity
QFQLVESGGGLVQAGGSLRLSCAASGFIFKRYTMGWYRQAPGKERELVAAISFSGGSTYYADSVKGRFTISRDNAKNTVYLQMNSLKPEDTAVYYCAKVYRVVPATQKEYGYWGQGTQVTVSS | high polyreactivity
